These results are taken from patent US20250051429A1 (Hoffmann-La Roche, published 2025).

In the assay the target is T1, human A-beta protein, fibrillar A-beta(1-40) coated for the ELISA (human).
T1 construct: also called Aβ1-40 fibers; fibrillar Aβ
In words: ELISA, antibody on coated fibrillar A-beta(1-40). The method, then:
Binding of the antibodies to fibrillar Aβ is measured by an ELISA assay. Briefly, AD(1-40) is coated at 7 μg/mL in PBS onto Maxisorb plates for 3 days at 37° C. to produce fibrillar Abeta, and then dried for 3 h at RT. The plate is blocked with 1% CroteinC and 0.1% RSA in PBS (blocking buffer) for 1 h at RT, then washed once with wash buffer. Antibodies or controls are added at concentrations up to 100 nM in blocking buffer and incubated at 4° C. overnight. After 4 wash steps, constructs are detected by addition of anti-human-IgG-HRP (Jackson Immunoresearch) at 1:10,000 dilution in blocking buffer […], followed by 6 washes and incubation in TMB (Sigma). Absorbance is read out at 450 nm after stopping color development with 1 N HCl.
For orientation: An ELISA detects its analyte on a solid surface through an enzyme-linked reagent.

T1 sequence (peptide, as listed by the source): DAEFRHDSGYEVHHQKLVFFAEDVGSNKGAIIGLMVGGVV

B1: gantenerumab (antibody, human IgG1, V domains shown)
VH: QVELVESGGGLVQPGGSLRLSCAASGFTFSSYAMSWVRQAPGKGLEWVSAINASGTRTYYADSVKGRFTISRDNSKNTLYLQMNSLRAEDTAVYYCARGKGNTHKPYGYVRYFDVWGQGTLVTVSS
VL: DIVLTQSPATLSLSPGERATLSCRASQSVSSSYLAWYQQKPGQAPRLLIYGASSRATGVPARFSGSGSGTDFTLTISSLEPEDFATYYCLQIYNMPITFGQGTKVEIK
modifications: glycosylation site in heavy chain CDR2 (NAS); Fab glycosylation (CE-SDS) 30-80 %
notes: kappa light chain; also called parent antibody gantenerumab; wt: NAS
For orientation: EC50 means the concentration giving half of the maximal effect. As to B1, the response was half-maximal at 0.2 nM (EC50). In other words, the sub-nanomolar range.

B2: mAb 675 (antibody, V domains shown)
VH: QVELVESGGGLVQPGGSLRLSCAASGFTFSSYAMSWVRQAPGKGLEWVSAINATGTRTYYADSVKGRFTISRDNSKNTLYLQMNSLRAEDTAVYYCARGKGSSGYVRYFDVWGQGTLVTVSS
VL: DIVLTQSPATLSLSPGERATLSCRASQSVSSSYLAWYQQKPGQAPRLLIYGASSRATGVPARFSGSGSGTDFTLTISSLEPEDFATYYCLQIYNMPITFGQGTKVEIK
modifications: glycosylation site in heavy chain CDR2 (NAT); Fab glycosylation (CE-SDS) 100 %
notes: Variant of gantenerumab: heavy chain S53T (Kabat) and shortened heavy chain CDR3, wild-type light chain; Only variable domains are tied to the name; also called 142; gantenerumab VH NAT variant with wild-type light chain
As for B2, it took 0.2 nM to reach a half-maximal effect (EC50).

B3: mAb 663 (antibody, V domains shown)
VH: QVELVESGGGLVQPGGSLRLSCAASGFTFSSYAMSWVRQAPGKGLEWVSAIQASGTRTYYADSVKGRFTISRDNSKNTLYLQMNSLRAEDTAVYYCARGKGSSGYVRYFDVWGQGTLVTVSS
VL: DIVLTQSPATLSLSPGERATLSCRASQSVSSSYLAWYQQKPGQAPRLLIYGASSRATGVPARFSGSGSGTDFTLTISSLEPEDFATYYCLQIYNMPITFGQGTKVEIK
modifications: no Fab glycosylation (CE-SDS 0 %)
notes: Variant of gantenerumab: heavy chain N52Q (Kabat) and shortened heavy chain CDR3, wild-type light chain; also called 143; gantenerumab VH QAS variant with wild-type light chain
Molecule B3 had a 50% effective concentration (EC50) of 0.2 nM.

B4: mAb 651 (antibody, V domains shown)
VH: QVELVESGGGLVQPGGSLRLSCAASGFTFSSYAMSWVRQAPGKGLEWVSAINATGTRTYYADSVKGRFTISRDNSKNTLYLQMNSLRAEDTAVYYCARGKGSSGYVRYFDVWGQGTLVTVSS
VL: DIVLTQSPATLSLSPGERATLSCRASQSVSSSYLAWYQQKPGQAPRLLIYGASSRATGVPARFSGSGSGTDFTLTISSLEPEDFATYYCLQIYNHPITFGQGTKVEIK
modifications: glycosylation site in heavy chain CDR2 (NAT); Fab glycosylation (CE-SDS) 100 %
notes: Variant of gantenerumab: heavy chain S53T, shortened heavy chain CDR3, light chain M95H (Kabat); also called 144
B4 yielded an EC50 of 4 nM.

B5: mAb 638 (antibody, V domains shown)
VH: QVELVESGGGLVQPGGSLRLSCAASGFTFSSYAMSWVRQAPGKGLEWVSAIQASGTRTYYADSVKGRFTISRDNSKNTLYLQMNSLRAEDTAVYYCARGKGSSGYVRYFDVWGQGTLVTVSS
VL: DIVLTQSPATLSLSPGERATLSCRASQSVSSSYLAWYQQKPGQAPRLLIYGASSRATGVPARFSGSGSGTDFTLTISSLEPEDFATYYCLQIYNHPITFGQGTKVEIK
modifications: no Fab glycosylation (CE-SDS 0 %)
notes: Variant of gantenerumab: heavy chain N52Q, shortened heavy chain CDR3, light chain M95H (Kabat)
The molecule B5 returned an EC50 of 0.2 nM.
